Test results from patent US12338483.

T1: GzmB/MMP AND-gate protease activity sensor
T1 chain: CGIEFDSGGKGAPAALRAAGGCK

B1: West Nile Virus NS3 protease (protein)
chain: GGVLWDTPSPKEYKKGDTTTGVYRIMTRGLLGSYQAGAGVMVEGVFHTLWHTTKGAALMSGEGRLDPYWGSVKEDRLCYGGPWKLQHKWNGHDEVQMIVVEPGKNVKNVQTKPGVFKTPEGEIGAVTLDYPTGTSGSPIVDKNGDVIGLYGNGVIMPNGSYISAIVQGERMEEPAPAGFEPEML
B2: Tobacco Etch Virus protease (protein)
chain: GESLFKGPRDYNPISSTICHLTNESDGHTTSLYGIGFGPFIITNKHLFRRNNGTLLVQSLHGVFKVKNTTTLQQHLIDGRDMIIIRMPKDFPPFPQKLKFREPQREERICLVTTNFQTKSMSSMVSDTSCTFPSSDGIFWKHWIQTKDGQCGSPLVSTRDGFIVGIHSASNFTNTNNYFTSVPKNFMELLTNQEAQQWVSGWRLNADSVLWGGHKVFMSKPEEPFQPVKEATQLMNELVYSQ

Molecular target: T1, GzmB/MMP AND-gate protease activity …

Row | Protein | fluorescent signal in a cleavage assay (AND-gate sensor with GzmB and a second protease)
1 | B1 | The sensor produced low signals with the viral proteases compared to MMP8
2 | B2 | The sensor produced low signals with the viral proteases compared to MMP8
